This note sets out measurements from the DeepSol protein solubility set.

A short description of this data set: soluble on expression in E. coli; label from the status in PepcDB or PDB records.
Take “MTTVSVQIPAGWPATEERARAVQDELRARVVLDEPGPPPGTGRVTGVDVAYDDERDVVAAAAVVLDAGTLAVVAEATAVGRISFPYVPGLLAFREIPTVLAALEALPCPPGLVVCDGYGLAHPRRFGLASHLGVLTGLPTIGVAKNPFTFTHDDPDTPRGSTSPLLAGAEEVGRAVRTRDGVKPVFVSVGHRVGLGNACAHTLALTPAYRLPETTRRADALCRAALRDAAYRALEHHHHHH”: the “soluble on expression in E. coli” value was “not soluble”.
The same measure for “MGSDKIHHHHHHLFDRYEAGETAVLVHIDFSDDERREDLVELQLLVESAGARSVGVITGSRRAPDRKFFVGTGKAEELAAMVAATEAKVVIFNHALSPAQERNLERVCHCRVLDRTTLILDIFAQRARTHEGKLQVELAQLRHMSTRLIRGWTHLERQKGGIGMRGPGETQLETDRRLLRGRIKNINRRLDKVDKQREQSRRSRKRSDLATVSLVGYTNAGKSTLFNGLTSSDVYAADQLFATLDPTLRKLDLPDGAVILADTVGFIRHLPHDLVAAFKATLQETRQAELLLHIVDCADDNMQDNFDQVQDVLKEIDADEIPQLVVCNKIDLLEDFAPRIDYAEDGTPERVWLSAQKGQGFDLLLQAITELVGNIVLELTLKVPATGGHYIGQMYKLDVIEHKDYDDLGNCIVKIRLLDADWRRMIKQSQGELETFVFEASETDVIL”: “not soluble”; for “MNYEGKTKIVKVTGDYALLEFKDDITAGDGLKHDVLTGKGSICAETTAILMKYLSEKGIKTHLVEYIPPRTLKVIPLKMFPLEVVVRLKKAGSFVRRYGGAEGEDLPVPLVEFFIKDDERHDPMVCVDHLEILGIATKKQAEKMKEAAVKITLALKEFFERANFELWDIKYEFGLDKDGNVVLGDEISPDTFRLRKKGEIFDKDVYRRDLGDPLKKYREVLELCRSLNSQ”: “soluble”.
Then “MHSRSVKFPSSKGHQIAGTIDFPDGTPRAFAMFAHCFTGSRFTPGAARVSKELAERGIACLRFDFPGLGQSEGIFSETSFSENVADIKAAADWLGQHYSAPQLLIGHSLGGAASLKAATTLKCLRGVATIGAPFDPAHAVLHFADRIGEVDENGAVTLTLGGRDITISREFLEDLADTNPEAYLPRLRKPLLILHSPIDQTVGVDNAQLIFRTTRYPKSLVALDKVDHLLTKQGSAQQAARIINTWFEQHIVAENEDPNADTLPEGVAVAQSIPAGKFADIVHTGTHSFTTDREKALGGKNLGVSPTSLLISALAAATSQEIRLAAKESRIHSLEDVNVTISKTVGDGERVHLRRNISLVGDLTDDERHELLLAARNSDIEKMLQGNVTINDQDV”, with “not soluble”; and “MIRLTELKLPLNHEEGALLDAIAAKLKIPAQQVLSFTLFRRGYDARKKSDIQLIYTVDVEVANPEKLLAKFSKDQHVRPTPDMSYKFVAKAPENLPERPLVIGFGPCGLFAGLVLAQMGFNPIIVERGKEVRERTKDTFGFWRKRTLNTESNVQFGEGGAGTFSDGKLYSQVKDPNFYGRKVITEFVEAGAPEEILYVSKPHIGTFKLVTMIEKMRAKIIELGGEIRFSTRVDDIHMQDGQITGVILSNGEEIQSRHVVLAVGHSARDTFEMLHARGVYMEAKPFSVGFRIEHKQSMIDEARFGPSAGHPILGAADYKLVHHCKNGRTVYSFCMCPGGTVVAATSEEGRVVTNGMSQYSRAERNANSAIVVGISPEQDYPGDPLAGIRLQRELETNAYKLGGETYDAPAQKIGDFLKGRNPSELGDVQPSFTPGIKLTDLSKALPAFAVEAIREAIPEFDRQIKGFASEDGLLTGVETRTSSPVCIKRGKDFQSINLKGFYPAGEGAGYAGGILSAGIDGIKVAEAVARDMMARFAGELEHHHHHH”, with “soluble”; and “MFAYDRLALDLAVFNLKDVDSGNSSSSERSSPPTRIMSQAQNINDESGSSGYGSPTRTPLASPSNDIFSSVLPLQVQRAFSAQSPEEITRHFGVSPSPQAVKPVPEVQQQREQAQVSQTSAQGLAAVDGFSMAEIAGFAELLSSPKKTPPPRYQCHICYATGHHYISDCPQRFNTPYDELTPYQGRKKCYGEFTCQLCKRKWNSQNSVANEPQSCIKCHVPVFPHKQLPVEKAVTLGLIKAQNVTKVAPIGHGRPPARKHEEISRRH”, with “not soluble”.
The same measure for “MGHHHHHHSHMKFRAKIVDGACLNHFTRISNMIAKLAKTCTLRISPDKLNFILCDKLANGGVSMWCELEQENFFNEFQMEGVSAENNEIYLELTSENLSRALKTAQNARALKIKLTNKHFPCLTVSVELLSMSSSSRIVTHDIPIKVIPRKLWKDLQEPVVPDPDVSIYLPVLKTMKSVVEKMKNISNHLVIEANLDGELNLKIETELVCVTTHFKDLGNPPLASESTHEDRNVEHMAEVHIDIRKLLQFLAGQQVNPTKALCNIVNNKMVHFDLLHEDVSLQYFIPALS”: “soluble”.
For the sequence “QSDEWRRTTRLLGEILEDTTRPPLERLRRLVLAFVRSECEEAAIRVALSDAAPLYRDADEAREVKAEGARVFQAFLREALPEVAEAERSLAGDLLTTTLGAVGKQFSEQPRSEAEIERYAEALADMLCAYLAALGER”, the “soluble on expression in E. coli” value is on record as “not soluble”.
Then “MGSDKIHHHHHHMNKKGNTEEIIERLFSILSSEKDSIEFLKAVSEFSKFYEIDKKEQERRSSEAKSFVKMALQDFESVKILYQSKIYSLAVYHLQQAVEKYVKAYVLAFFGLSKKEMKGYVGHDSPKAFIRLLDRYKRSLELFLKSIQKIGGLDTQFLKISDEDIRKLVRIVNMSRKQIAEMDSNQIKGIINATIKIKIALENKEIKNQILGLLSKLKNEASEIKSSDPSEKFILEKLIDSVDRVLNNLETLLKLSSTFLVLYMLSIITYPHATFARYPNKTLPPEKYDENLGIVQYFNEIVKLLDEVANLLVYEI”, with “not soluble”; and “MEYTQIPSFALYNNASIFQFFPRNKRLSTHQKSCLDEHARKMAVFMMERQEEYRYYENLANQEQFSDDACFSDTGMDSGFCSGDTSTGQSASTSPAPAHLIPNPFFDPEYVASKTTMKLVANPFYNPKLAKEIKKKSTHTSKFQ”, with “not soluble”.
Turning to “MGSDKIHHHHHHMNRIQLSQLAVLATVAETSSFRKAAEELGIAPSAVSHAVSALEASLGVRLLARTTRSVAPTEEGRQLLQKLAPALADIGTALETLAENKSNPAGPLRITMPALAAEDLIVPRLGDFLGLYPDIQLELITNDQFEDIVEKGFDAGLRLGEHLETDMVAVKASGPISGTIIGAPSYFERHPLPVHPHDLMEHRCIRRRFSSGRIYRWELEKHGKQIAVDVPDVLTLADQRLIRLAALKGVGLAFVFDQRVDKDIREGRLIRVLEDWCPPFDGFYIYYPTRRQMRPALRAFVDFFRHRS”, the “soluble on expression in E. coli” value is recorded as “not soluble”.
The same measure for “MGSDKIHHHHHHLRFIIVSGPPSAGKTAVMIHAIRHLLKDGIKVAACKIDCLKTSDDKNYRALGIPVAVGLSEYLCPDHFFVANLEEIYAWGSYYGTEVLILETAGLCHRCAPAIQGCLSICVIDNLSGIDTPQKVGPMLSTADVVLISKGDVVSQAEREVFRQRVEMVNPDAAVLSVNGLNGQGSLKLKKIIMESASVKRIEGQELRCSMPAAICSYCTGETMIGSSYQMGNVKKLDFGKF”: “not soluble”; for “MGSDKIHHHHHHMLIIKRSVAIIAILFSPLSTASNLTSQLHNFFSAQLAGVSDEVRVSIRTAPNLLPPCEQPLLSMSNNSRLWGNVNVLARCGNDKRYLQVNVQATGNYVVAAMPIARGGKLEAGNVKLKRGRLDTLPPRTVLDINQLVDAISLRDLSPDQPIQLTQFRQAWRVKAGQRVNVIASGDGFSANAEGQALNNAAVAQNARVRMVSGQVVSGVVDADGNILINL”: “not soluble”; for “MGSDKIHHHHHHMLSRTADHLYWMARYIERAENMARVLDVTYNMSLVPNASQSETTLWEPALQIAGGVDSYRQEYGEVTAGGVVRFLAMDTKNPSSIYSTLRSARENARSVRVTLSAETWENINALWLEFSQFVGMDLMQKGLGEFCDWVKSRSHLFRGVSFGTMLRDDAFRFLRLGTFIERADNTARLLDVKYHLLLPSGEEVGGAVDYYEWSAILRAVSAFHAYQKVFNDAIEPWKVAELLVLREDMPRSLHACFSEITPILDQLNGRHSSECRRLAGELHARLRYGRMTDIFQGGLHEFLTDFITSNNNLGAEIQRTFLNAPINGLAAETE”: “not soluble”.
Then “MGSDKIHHHHHHAETVVVRLGLFTESISLTELQNAAKTGELPRSLQSYAKGLSEQQRRFLLGALGMNIPMNVVTINKLLNTQIGTTILNDFATALARKDNAGVQALRGGLVLGSTAPGGLSILSFIAAYPSKRLEIDLPKAFIVAGNLNTAFWRTQQFMVAIAPRLDSTTSQIAFPFDPSQPGTAQVKILNLSLNDQKRQRKIPVDIYWSNDATANKPLIVFSHGLGSVRTDLRYLAEHLASHGYVVAALEHPGSNEDNINSALQGKTRPVKPQEFLNRPQDVSFVLDELEKLNQTTNHPLQGKLATMNAMVVGYSFGGSTALALAGGELQLERLKQRCKKNLAILSLGEAMQCIAQELPENTYQLRDTRIKQAIALNPTTSLIFGETGLTKVQVPTLVLAGSADKTTPALTEQIVGFDKIPSPKWLVGIVGGTHLSVKDPSKTMDQIGQPNTPISGGEVVGEQAADIRKYLKAITLAFAAQMTPEAKNYAIFLTSDYAQFASTKAFPFRLITQIPSNAMPVVKEFGDK”, with “not soluble”; and “MDYFNIFAYGELMKDEILFELINRVPEKNLGKIYNFEKFFDEKIGYYGIKPKENSSISGIILFNINSTELEIFDDYEDEGTYYSKNKTICYDLNGKGYESYVYVRLELEHHHHHH”, with “not soluble”.
On to “WSQNEGKSVIPVQITKENSAYLADALLLDTSKEAQDAVENHSMMLSAKELFPVLETMKQIRQYGDSTDKNYGYRDEGSMFNSGNTAMYINGVWASKLIDEKIDACYAPFPGKNGSTIASSSVCLGYIVGNTGNQETMDASVEFLKYMLSEKVQKRILLETGQMPSSPKIHLEEYKEQIPRMCNAVEAIRGADRIIEVPDNLWTADQLENFRNQIMEVLNGTLDEEQFCTNLYQ”, for which the “soluble on expression in E. coli” value is listed as “not soluble”.
Then “VADTDGHYRVRAITEISSFNETLGATFSDKEFDTIGGLVINKFGRLPKNGESITIEGFNFTVTRADSRRLHLLKVERIEPGVVEDADSHDSV”, with “not soluble”; and “MTLDANSAPVRDMASAHFSPGEDCRRKIRDLCRQARISVDICVFTISDDQLSDEIRACHQRGVAVRVISDSEKQFDVGSDIAALREAGVPVRIDDTPFHMHHKFAVFDGRTLLNGSFNWTRSATTGNEENLLVIDHPQLVASYLKEFNELWSRYAPRLEHHHHHH”, with “not soluble”.
Take “MLSIVCPPLSAQWAENFDHITALTSPPWRGQIADFAIIKKQLKLYVEYPDDLNESRIAITVPYFKTTTWKGDVKLDFRPTINNYLYCYLYCYGEISDSEFDYVALRWGSGSKGVDLLDVRLRVLPSGESSIVRSDILIDGSAYPLGTKPFTSFTVTYAVGSGWQLWVNGANDTGNETVLIGSSSFDVESPFQSGGLGIDCFYTKSRSKAFSFDNLSVSEGAVSPPEEEEEPIPLGKPTLNELMANPLEGGSEYIELYNPTDKPVVPSKFAIGILRNGSYTTTTALPTVADTLYPGQYIVFAKKSEGVTDFYPQAQNVVTMSNLPQLANKGFTIGLFEEGLDQPLEEVVYSPKMLGEGNVTRRGVSLERISFETPASDPTNWAGGLPSAGYATPGYLNSQSSNADTTQLGLPNNETEGNGKSYLPPASIAEE”: the “soluble on expression in E. coli” value is on record as “not soluble”.
The same measure for “MSLSSMLPSISPELARIAPGFRALSINVIAAPVRDAQVGEIALKEACQAVINGQPAWAQAHIDAWNAVFKAFGAKPKRTPCSAEALRKRVLKDGTMAALDPVVDLYNAVSLRYAVPVGGENSAAYCGSPRLVFADGSETFDTLKEGKPVTESPEPGEVIWRDDRGVTCRRWNWRQGVRTRLSASDKMMWFILESLPEMPVDELYAAENMLTDGLEKMMPGLRFESTLIGVEGHHHHHH”: “not soluble”.
